The target of this test is T1, GAL4-human silencing mediator of retinoid and thyroid transcription (SMRT) receptor interacting domain 1 and … (yeast; human).
T1 construct: also called GAL4-SMRT ID1+ID2
T1 chain: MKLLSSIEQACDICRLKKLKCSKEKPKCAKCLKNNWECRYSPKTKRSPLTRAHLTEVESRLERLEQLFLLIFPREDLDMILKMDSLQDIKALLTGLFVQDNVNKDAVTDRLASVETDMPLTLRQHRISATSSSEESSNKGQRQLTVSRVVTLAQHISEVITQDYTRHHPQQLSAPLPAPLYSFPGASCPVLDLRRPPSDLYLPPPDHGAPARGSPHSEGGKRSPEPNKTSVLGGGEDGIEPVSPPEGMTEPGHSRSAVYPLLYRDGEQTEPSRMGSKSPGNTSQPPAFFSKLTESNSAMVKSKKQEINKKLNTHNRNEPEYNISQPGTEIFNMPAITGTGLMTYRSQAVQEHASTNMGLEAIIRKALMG
Nature of the test: mammalian GAL4/VP16 two-hybrid, CV-1 cells, luciferase reporter. (In general: A reporter such as luciferase makes a cellular process visible.)

B1: VP16-LXR-LBD (VP16 activation domain fused to the ligand binding domain of human LXRα, amino acids 164-447) (receptor)
chain: SRGRTRNNYGSTIEGLLDLPDDDDAPAEAGLVAPRMSFLSAGQRPRRLSTTAPITDVSLVDELRLDGEEVDMTPADALDDFDLEMLGDVESPSPGMTHDPVSYGALDVDDFEFEQMFTDALGIDDFGGREECVLSEEQIRLKKLKRQEEEQAHATSLPPRRSSPPQILPQLSPEQLGMIEKLVAAQQQCNRRSFSDRLRVTPWPMAPDPHSREARQQRFAHFTELAIVSVQEIVDFAKQLPGFLQLSREDQIALLKTSAIEVMLLETSRRYNPGSESITFLKDFSYNREDFAKAGLQVEFINPIFEFSRAMNELQLNDAEFALLIAISIFSADRPNVQDQLQVERLQHTYVEALHAYVSIHHPHDRLMFPRMLMKLVSLRTLSSVHSEQVFALRLQDKKLPPLLSEIWDVHE
notes: also called VP16 fusion of LXRα; VP16-LXRα-LBD
As for B1, the binding result is listed as “binds”.

B2: VP16-LXR-LBD (VP16 activation domain fused to the ligand binding domain of human LXRβ, amino acids 155-461) (receptor)
chain: SRGRTRNNYGSTIEGLLDLPDDDDAPAEAGLVAPRMSFLSAGQRPRRLSTTAPITDVSLVDELRLDGEEVDMTPADALDDFDLEMLGDVESPSPGMTHDPVSYGALDVDDFEFEQMFTDALGIDDFGGREQCVLSEEQIRKKKIRKQQQESQSQSQSPVGPQGSSSSASGPGASPGGSEAGSQGSGEGEGVQLTAAQELMIQQLVAAQLQCNKRSFSDQPKVTPWPLGADPQSRDARQQRFAHFTELAIISVQEIVDFAKQVPGFLQLGREDQIALLKASTIEIMLLETARRYNHETECITFLKDFTYSKDDFHRAGLQVEFINPIFEFSRAMRRLGLDDAEYALLIAINIFSADRPNVQEPGRVEALQQPYVEALLSYTRIKRPQDQLRFPRMLMKLVSLRTLSSVHSEQVFALRLQDKKLPPLLSEIWDVHE
notes: also called VP16 fusion of LXRβ; VP16-LXRβ-LBD
In the case of B2, the binding result is given as “binds”.
